Laboratory results reported in patent US20160215040A1 (Regeneron, published 2016).

Legend:
[1] = molecular target: T1, Ebola virus GP with a C-terminal polyhistidine tag (Sino Biologicals, Catalog #40442-V08B1) (Ebola virus, UniProt P87666 33-650); assay: SPR 37C, mAb captured, pH chase
T1 construct: also called EbolaGP.his; Ebola virus GP.his

[2] = molecular target: T1, Ebola virus GP with a C-terminal …; assay: SPR 37C, mAb captured
[3] = molecular target: T2, hCNTFR.mmh (ciliary neurotrophic factor receptor.mmh) (human (printed as hCNTFR), UniProt P26992 23-342); assay: BLI, mAb captured, 25C
T2 construct: also called negative control protein; not shown: mmh (myc-myc-hexahistidine) tag
T2 sequence: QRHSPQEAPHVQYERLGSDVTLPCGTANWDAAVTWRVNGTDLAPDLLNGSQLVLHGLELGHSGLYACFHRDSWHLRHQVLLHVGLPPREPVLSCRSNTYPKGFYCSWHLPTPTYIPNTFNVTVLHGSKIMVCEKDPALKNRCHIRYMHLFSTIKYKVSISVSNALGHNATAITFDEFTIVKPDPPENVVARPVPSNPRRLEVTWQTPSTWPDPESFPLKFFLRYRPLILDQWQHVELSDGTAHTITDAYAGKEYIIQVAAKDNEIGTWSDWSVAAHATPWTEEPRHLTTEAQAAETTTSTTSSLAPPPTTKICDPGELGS

[4] = molecular target: T1, Ebola virus GP with a C-terminal …; assay: SPR 25C, mAb captured
[5] = molecular target: T3, Ebola virus GP, Sudan strain, on VLPs (Ebola virus, Sudan strain, UniProt Q7T9D9 33-676); assay: MSD, VLPs coated
T3 construct: also called Sudan NC_006432
T3 sequence: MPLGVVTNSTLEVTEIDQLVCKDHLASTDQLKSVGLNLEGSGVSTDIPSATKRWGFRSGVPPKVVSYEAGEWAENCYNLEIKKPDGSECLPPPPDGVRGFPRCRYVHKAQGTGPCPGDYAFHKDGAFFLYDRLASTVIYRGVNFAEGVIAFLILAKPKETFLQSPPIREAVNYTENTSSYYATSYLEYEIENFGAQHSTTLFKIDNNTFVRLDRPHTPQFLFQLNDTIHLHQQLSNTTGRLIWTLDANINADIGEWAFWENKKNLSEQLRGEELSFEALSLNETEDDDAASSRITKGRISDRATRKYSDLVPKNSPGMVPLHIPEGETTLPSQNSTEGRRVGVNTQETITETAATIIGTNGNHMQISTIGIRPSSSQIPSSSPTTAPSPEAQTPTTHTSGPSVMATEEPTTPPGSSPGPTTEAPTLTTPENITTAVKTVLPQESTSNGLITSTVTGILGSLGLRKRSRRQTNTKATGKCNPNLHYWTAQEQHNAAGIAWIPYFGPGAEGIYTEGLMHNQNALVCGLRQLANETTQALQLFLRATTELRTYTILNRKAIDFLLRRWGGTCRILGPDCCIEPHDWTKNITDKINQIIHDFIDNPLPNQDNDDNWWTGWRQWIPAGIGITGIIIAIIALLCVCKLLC

[6] = molecular target: T4, Ebola virus GP, Cote d'Ivoire strain, on VLPs (Ebola virus, Cote d'Ivoire strain, UniProt Q66810 33-676); assay: MSD, VLPs coated
T4 construct: also called Cote d'Ivoire FJ217162; Ivory Coast
T4 sequence: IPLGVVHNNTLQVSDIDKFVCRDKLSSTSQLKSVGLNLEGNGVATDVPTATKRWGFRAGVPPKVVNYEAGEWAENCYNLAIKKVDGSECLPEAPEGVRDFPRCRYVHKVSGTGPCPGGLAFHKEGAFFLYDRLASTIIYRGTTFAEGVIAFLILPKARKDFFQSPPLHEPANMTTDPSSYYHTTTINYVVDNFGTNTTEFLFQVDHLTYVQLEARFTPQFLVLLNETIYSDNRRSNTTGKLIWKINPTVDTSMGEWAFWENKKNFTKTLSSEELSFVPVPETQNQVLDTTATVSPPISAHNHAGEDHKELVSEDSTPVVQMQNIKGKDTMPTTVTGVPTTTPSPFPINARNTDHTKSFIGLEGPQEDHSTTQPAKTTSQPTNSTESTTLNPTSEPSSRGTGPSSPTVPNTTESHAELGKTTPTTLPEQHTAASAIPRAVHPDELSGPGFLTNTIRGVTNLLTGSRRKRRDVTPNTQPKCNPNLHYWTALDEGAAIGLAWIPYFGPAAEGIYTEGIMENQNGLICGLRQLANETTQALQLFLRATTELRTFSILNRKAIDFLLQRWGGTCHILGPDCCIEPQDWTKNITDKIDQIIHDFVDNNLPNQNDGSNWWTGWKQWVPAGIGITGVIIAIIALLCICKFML

[7] = molecular target: Ebola virus GP, Zaire 2014 strain, on VLPs (pseudoparticles) (Ebola virus, Zaire.2014 strain); assay: cell-based or functional assay

Row | Binder | t½ ratio pH 7.4/pH 5.0 [1] | t½ ratio pH 7.4/pH 6.0 [1] | Kd [2] [nM] | koff [2] [s⁻¹] | kon [2] [M⁻¹ s⁻¹] | t½ [2] [min] | binding result [3] | Kd [4] [nM] | koff [4] [s⁻¹] | kon [4] [M⁻¹ s⁻¹] | t½ [4] [min] | binding result [5] | binding result [6] | Zaire 2014 VLP neutralization IC50 [7] [nM]
1 | H1H17193P (antibody, V domains shown) VH: QVQLVESGGGVVQPGRSLRLSCAASGFTFSSYGIHWVRQAPGKWLEWVAFIWFDGSNKYYADSVKGRFTISRDDSKNTLYLQMNSLRAEDTAVYYCARDGEIFGVLISSDAFDIWGQGTMVTVSS VL: DIQMTQSPSSLSASVGDRVTITCRASRGIRNDLGWFQQKPGKAPKRLIYVASNLQSGVPSRFSGSGSGTEFTLTISSLQPEDFATYYCLQHNSYPITFGQGTRLEIK | 0.8 | 1.1 | 31.8 | 0.000503 | 15800 | 22.9 | no binding (tested: below 0.10 nm at 300 nM) | 23.6 | 0.000108 | 4580 | 107 | no binding | no binding | 
2 | H1H17196P (antibody, V domains shown) VH: EVQLVESGGGLVQPGGSLRLSCAASGFTFRSYDMHWVRQGSGKGLEWVSAIGTAGDTYYLGSVKGRFTISRENAKNSLYLQMNSLRAGDTAVYYCARAWFGDVFLDYWGQGTLVTVSS VL: EIVMTQSPATLSVSPGERATLSCRASQSVSSNLAWYQQKPGQAPRLLIYGASTRATGIPARFSGSGSGTEFTLTISSLQSEDFAGYYCQQYNNRLTFGGGTKVEIK | 1 | 1 | 0.317 | ≤ 1e-05 | 31600 | ≥ 1160 | no binding (tested: below 0.10 nm at 300 nM) | ≤ 0.391 | ≤ 1e-05 | 25600 | ≥ 1160 | no binding | no binding | 
3 | H2aM17358N (antibody, V domains shown, also called HCAF12C05-14) VH: EVQLVESGGGLVQPGGSLRLSCAASGFTFSTYEMNWVRQAPGKGLEWVSYSSSSGRTIYYADSVKGRFTISRDNAKNSLFLQMNSLRAEDTAVYYCARPSSIETLLRNQYHYGVDVWGQGTTVTVSS VL: not shown | 0.4 | 0.7 | 52.8 | 0.000567 | 10700 | 20.4 |  | 623 | 0.000201 | 322 | 57.5 |  |  | 4.68
4 | H2aM17360N (antibody, V domains shown, also called HCAF12G09-07) VH: EVQLVESGGGLVQPGGSLRLSCAASGFTFSSYEMNWVRQAPGKGLEWVSYISSSGSTKYYADSVKGRFTISRDNAKNSLYLQMNSLRAEDTAVYYCARPSSIPALLRNQYHYGMDVWGQGTTVTVSS VL: not shown | 0.5 | 0.2 | 13.9 | 0.000337 | 24300 | 34.3 |  | 0.463 | 1.06e-05 | 23000 | 1090 |  |  | 3.75
